According to IntAct's records for PubMed 22821967:

B1: Uncharacterized protein YpfA (Bacillus subtilis), P38491 (parent)
chain: MIEIGENVLLEYIEENELKKAKSKAVSIENNELLIAYPVDVVTGRTVILHNDMEVTVEFVGKDEVPYRFISRIKGKVKDKLQMICLEMPPREKMKRIQRRQYVRTDAVLDVQIQPGNEEEIRTLSYNISAGGIAVVLADGLSFQSGESLRLIIRLPEEEHTRQIETEAVVRRIFNDPKSEKRKMTLEYSEIAAGDQQALLQYCIRRQLNKRRKARME
partner: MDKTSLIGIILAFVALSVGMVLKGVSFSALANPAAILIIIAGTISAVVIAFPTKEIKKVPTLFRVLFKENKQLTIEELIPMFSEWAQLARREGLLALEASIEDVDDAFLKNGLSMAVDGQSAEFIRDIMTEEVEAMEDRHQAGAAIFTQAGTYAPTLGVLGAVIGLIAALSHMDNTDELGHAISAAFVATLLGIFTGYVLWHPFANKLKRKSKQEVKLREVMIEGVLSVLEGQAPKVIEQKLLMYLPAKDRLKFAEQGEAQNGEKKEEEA

Variants of: B1
Conditions: with mota_bacsu motA

Effect of a mutation on the interaction, disrupting interaction:
R100F
R104D
N127A
G132A
